“And” between values parts separate entries of the source, which are not always exact repeats. Equal entries are not always repeated.
Legend:
REQNRI2…2R = assay: peptide-array ELISA [Con't]
[1] = biological target: CAPLRK2…2…; assay: peptide-array ELISA [Con't]
[2] = biological target: ETSDVV2…; assay: peptide-array ELISA [Con't]
[3] = biological target: 2…; assay: peptide-array ELISA [Con't]
…2SK2SPGQH = assay: peptide-array ELISA [Con't]
[4] = biological target: SDVV2…; assay: peptide-array ELISA [Con't]
[5] = biological target: SKQEGCRL2APGGSGGL2…; assay: peptide-array ELISA [Con't]
…2GGSGGQA2TREQNRIC = assay: peptide-array ELISA [Con't]
LSCGSR2…2T = assay: peptide-array ELISA [Con't]
CLSKQEG2RL2…2RLC = assay: peptide-array ELISA [Con't]
SCGSR2…2 = assay: peptide-array ELISA [Con't]
CAPEPGST2…2TSTSPTRC = assay: peptide-array ELISA [Con't]
[6] = biological target: C2…2…; assay: peptide-array ELISA [Con't]
[7] = biological target: LS2…2…; assay: peptide-array ELISA [Con't]
2…2R = assay: peptide-array ELISA [Con't]
[8] = biological target: …2TSCAPLRK2…; assay: peptide-array ELISA [Con't]
…2R = assay: peptide-array ELISA [Con't]
Sequence of …2R (peptide, as listed by the source): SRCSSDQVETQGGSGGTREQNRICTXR

…2TREQNRIC = assay: peptide-array ELISA [Con't]
LS2…2R = assay: peptide-array ELISA [Con't]
2…2RPGW = assay: peptide-array ELISA [Con't]
[9] = biological target: WNWVPE2…; assay: peptide-array ELISA [Con't]
Sequence of WNWVPE2… (peptide, as listed by the source): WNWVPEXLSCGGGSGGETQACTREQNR

[10] = biological target: CG2RL2APLRK2RPGFCQA2TREQNRI2T2RPC; assay: peptide-array ELISA [Con't]
TREQNRI2…2R = assay: peptide-array ELISA [Con't]
[11] = biological target: TETSDVV2…; assay: peptide-array ELISA [Con't]
[12] = biological target: VV2…; assay: peptide-array ELISA [Con't]
VPE2LS2…2…2 = assay: peptide-array ELISA [Con't]
[13] = biological target: CSR2…2TRCAPLRK2…; assay: peptide-array ELISA [Con't]
[14] = biological target: CAPEPGST2…2…; assay: peptide-array ELISA [Con't]
PE2LS2…2TREQNRIC = assay: peptide-array ELISA [Con't]
[15] = biological target: V2…; assay: peptide-array ELISA [Con't]
[16] = biological target: CQA2TREQNRI2T2RPCAPLRK2…; assay: peptide-array ELISA [Con't]
S2…2TREQNRIC = assay: peptide-array ELISA [Con't]
CAPLRK2…2TREQNRI2T2RPC = assay: peptide-array ELISA [Con't]
[17] = biological target: CDQVETQA2…2…; assay: peptide-array ELISA [Con't]
TREQNRI2…2RL = assay: peptide-array ELISA [Con't]
[18] = biological target: VPE2LSCGSR2…; assay: peptide-array ELISA [Con't]
VPE2LS2…2RPGW = assay: peptide-array ELISA [Con't]
[19] = biological target: …2…; assay: peptide-array ELISA [Con't]
Sequence of …2… (peptide, as listed by the source): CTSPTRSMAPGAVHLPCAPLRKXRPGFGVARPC

LS2…2RP = assay: peptide-array ELISA
WNWVPE2…2 = assay: peptide-array ELISA
PE2LS2…2RP = assay: peptide-array ELISA
[20] = biological target: CEQNRI2T2RPGWY2…2TSTSPTRC; assay: peptide-array ELISA
2…2RPG = assay: peptide-array ELISA
E2LS2…2RP = assay: peptide-array ELISA
LWNWVPE2…2 = assay: peptide-array ELISA
LS2…2RPG = assay: peptide-array ELISA
[21] = biological target: QEGCRL2…; assay: peptide-array ELISA
Sequence of QEGCRL2… (peptide, as listed by the source): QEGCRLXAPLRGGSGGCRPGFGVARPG

VPE2LS2…2RP = assay: peptide-array ELISA
…2…2RP = assay: peptide-array ELISA
2…2RP = assay: peptide-array ELISA
[22] = biological target: LWNWVPE2…; assay: peptide-array ELISA
Sequence of LWNWVPE2… (peptide, as listed by the source): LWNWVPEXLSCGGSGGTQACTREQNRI

2LS2…2RPGW = assay: peptide-array ELISA
S2…2RPG = assay: peptide-array ELISA
CTV2DS2…2TSTSPTRC = assay: peptide-array ELISA [Con't]
[23] = biological target: Y2…; assay: peptide-array ELISA [Con't]
Sequence of Y2… (peptide, as listed by the source): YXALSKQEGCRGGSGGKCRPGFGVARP

…22SK2CNASMDAV2TSTSPTRC = assay: peptide-array ELISA [Con't]

With agonistic TNFR2 antibody MR2-1 as the substance, how does the Raw luminescence data (REQNRI2…2R) read?
Its Raw luminescence data is 210.

What about the Raw luminescence data [1] of the same substance?
The Raw luminescence data was 223.

What about the Raw luminescence data [2] of the same substance?
The Raw luminescence data was 197.

What about the Raw luminescence data [3] of the same substance?
The Raw luminescence data was 208.

And the Raw luminescence data (…2SK2SPGQH)?
The Raw luminescence data was 194.

And the Raw luminescence data [4]?
Its Raw luminescence data is 203 and 196.

And the Raw luminescence data [5]?
The Raw luminescence data was 224.

And the Raw luminescence data (…2GGSGGQA2TREQNRIC)?
The Raw luminescence data was 206.

What about the Raw luminescence data (LSCGSR2…2T) of the same substance?
Its Raw luminescence data is 194.

And the Raw luminescence data (CLSKQEG2RL2…2RLC)?
The Raw luminescence data was 198.

What about the Raw luminescence data (SCGSR2…2) of the same substance?
Its Raw luminescence data is 192.

And the Raw luminescence data (CAPEPGST2…2TSTSPTRC)?
The Raw luminescence data was 213.

What about the Raw luminescence data [6] of the same substance?
Its Raw luminescence data is 194.

And the Raw luminescence data [7]?
Its Raw luminescence data is 198.

What about the Raw luminescence data (2…2R) of the same substance?
The Raw luminescence data was 223.

What about the Raw luminescence data [8] of the same substance?
Its Raw luminescence data is 197.

What about the Raw luminescence data (…2R) of the same substance?
The Raw luminescence data was 200.

What about the Raw luminescence data (…2TREQNRIC) of the same substance?
The Raw luminescence data was 207 and 192.

And the Raw luminescence data (LS2…2R)?
The Raw luminescence data was 218.

What about the Raw luminescence data (2…2RPGW) of the same substance?
The Raw luminescence data was 224.

And the Raw luminescence data [9]?
Its Raw luminescence data is 220.

What about the Raw luminescence data [10] of the same substance?
Its Raw luminescence data is 215.

And the Raw luminescence data (TREQNRI2…2R)?
The Raw luminescence data was 205.

What about the Raw luminescence data [11] of the same substance?
Its Raw luminescence data is 208.

And the Raw luminescence data [12]?
Its Raw luminescence data is 209.

And the Raw luminescence data (VPE2LS2…2…2)?
The Raw luminescence data was 206.

And the Raw luminescence data [13]?
Its Raw luminescence data is 210.

What about the Raw luminescence data [14] of the same substance?
Its Raw luminescence data is 196.

And the Raw luminescence data (PE2LS2…2TREQNRIC)?
Its Raw luminescence data is 224.

And the Raw luminescence data [15]?
The Raw luminescence data was 222 and 197.

And the Raw luminescence data [16]?
Its Raw luminescence data is 204.

What about the Raw luminescence data (S2…2TREQNRIC) of the same substance?
The Raw luminescence data was 191.

And the Raw luminescence data (CAPLRK2…2TREQNRI2T2RPC)?
The Raw luminescence data was 220.

What about the Raw luminescence data [17] of the same substance?
Its Raw luminescence data is 201.

What about the Raw luminescence data (TREQNRI2…2RL) of the same substance?
Its Raw luminescence data is 206.

What about the Raw luminescence data [18] of the same substance?
The Raw luminescence data was 194.

And the Raw luminescence data (VPE2LS2…2RPGW)?
Its Raw luminescence data is 222.

What about the Raw luminescence data [19] of the same substance?
The Raw luminescence data was 192.

What about the Raw luminescence data (LS2…2RP) of the same substance?
The Raw luminescence data was 584.

And the Raw luminescence data (WNWVPE2…2)?
Its Raw luminescence data is 403.

And the Raw luminescence data (PE2LS2…2RP)?
The Raw luminescence data was 483.

And the Raw luminescence data [20]?
The Raw luminescence data was 413.

What about the Raw luminescence data (2…2RPG) of the same substance?
Its Raw luminescence data is 389.

What about the Raw luminescence data (E2LS2…2RP) of the same substance?
Its Raw luminescence data is 418.

What about the Raw luminescence data (LWNWVPE2…2) of the same substance?
The Raw luminescence data was 525.

And the Raw luminescence data (LS2…2RPG)?
The Raw luminescence data was 433.

What about the Raw luminescence data [21] of the same substance?
Its Raw luminescence data is 428.

What about the Raw luminescence data (VPE2LS2…2RP) of the same substance?
The Raw luminescence data was 410.

What about the Raw luminescence data (…2…2RP) of the same substance?
The Raw luminescence data was 459.

And the Raw luminescence data (2…2RP)?
The Raw luminescence data was 510.

And the Raw luminescence data [22]?
The Raw luminescence data was 400.

What about the Raw luminescence data (2LS2…2RPGW) of the same substance?
Its Raw luminescence data is 366.

And the Raw luminescence data (S2…2RPG)?
The Raw luminescence data was 385.

And the Raw luminescence data (CTV2DS2…2TSTSPTRC)?
Its Raw luminescence data is 182.

And the Raw luminescence data [23]?
Its Raw luminescence data is 175.

And the Raw luminescence data (…22SK2CNASMDAV2TSTSPTRC)?
Its Raw luminescence data is 173.

— US20250243290A1
